Reference: patent US12692294B2, “Engineered NRG-1 variants with improved selectivity toward ErbB4 but not against ErbB3” (Amgen Inc., priority 2021, dated 2026)

How the values were obtained:
ErbB4 = target: T1, ErbB4 (Rattus norvegicus, UniProt Q62956); experiment: In vitro phosphorylation of Akt in neonatal rat cardiomyocytes; format: cell-based; conditions: for EC50: Akt (Serine 473) phosphorylation, neonatal rat cardiomyocytes, 15 minutes treatment, read-out: Cardiomyocyte (CM) (ErbB4) Avg EC50; for Selectivity SC/CM: ratio of EC50s Schwann cells/cardiomyocytes; for CM % Agonism AVG: top value of the Akt phosphorylation data points in cardiomyocytes, wild-type control 100
T1 construct: forming the ErbB2/ErbB4 complex in cardiomyocytes and the ErbB2/ErbB3 complex in Schwann cells; endogenous in cells; host or cells: primary neonatal rat cardiomyocytes (Sprague Dawley pups, 0 to 4 days old)
Procedure: (§1) In Vitro Phosphorylation of Akt in Neonatal Rat Cardiomyocytes and Rat Schwann Cells by Neuregulin Variants
(§2) Specificity of neuregulin variants towards cardiomyocytes (ErbB4) versus Schwann cells (ErbB3) was tested by measuring Akt activity generated by formation of the ErbB2/ErbB4 and ErbB2/ErbB3 complexes. Upon activation by neuregulin, the ErbB4 and ErbB3 receptors dimerize preferentially with the ErbB2 co-receptor, forming the ErbB2/ErbB4 complex in cardiomyocytes and the ErbB2/ErbB3 complex in Schwann cells, both of which signal through the Akt pathway. Neonatal rat cardiomyocytes were isolated from hearts of Sprague Dawley rat pups at 0 to 4 days old according to manufacturer's protocol using the Neomyt kit and plated on Surecoat plates in NS media containing serum (all from Cellultron Life Technologies, Baltimore, MD). Rat Schwann cells were plated in Poly-D-Lysine coated plates with Dulbecco's modified Eagle's media (DMEM) supplemented with fetal bovine serum (Thermo Fisher) and forskolin (Millipore Sigma).
(§3) After a 24-hour incubation in a humidified incubator maintained at 37° C. and 5% CO2, cardiomyocytes and Schwann cells were washed with serum free media and incubated an additional 16 hours in DMEM supplemented with bovine serum albumin (Sigma). Both cell lines were then treated with titrations of the neuregulin variant molecules for 15 minutes, upon which cells were lysed in lysis buffer (Meso Scale Discovery (MSD)). For detection of Akt phosphorylation, lysates were added to the Multi-Spot 96-Well 4-Spot Phospho (Serine 473)/Total Akt plates (MSD), incubated according to the manufacturer's protocol and read in the SECTOR Imager 6000 (MSD). For both cell assays, the percent phosphorylation of Akt was calculated by multiplying the phospho Akt signal by 2, then dividing by the phospho Akt signal added to the total Akt signal and then multiplying by 100. The phosphorylation of Akt data points were fitted using a log (agonist) versus response, variable slope (4 parameters) analysis in GraphPad Prism to generate EC50 curves. The CM % agonism reflect the top value of the data points.

ErbB3 = target: T2, ErbB3 (Rattus norvegicus, UniProt Q62799); experiment: In vitro phosphorylation of Akt in rat Schwann cells; format: cell-based; conditions: Akt (Serine 473) phosphorylation, 15 minutes treatment, read-out: Schwann cells (SC) (ErbB3) Avg EC50
T2 construct: forming the ErbB2/ErbB4 complex in cardiomyocytes and the ErbB2/ErbB3 complex in Schwann cells; endogenous in cells; host or cells: rat Schwann cells
Procedure: as §1, §2, §3

T2 sequence (Q62799 20-1339): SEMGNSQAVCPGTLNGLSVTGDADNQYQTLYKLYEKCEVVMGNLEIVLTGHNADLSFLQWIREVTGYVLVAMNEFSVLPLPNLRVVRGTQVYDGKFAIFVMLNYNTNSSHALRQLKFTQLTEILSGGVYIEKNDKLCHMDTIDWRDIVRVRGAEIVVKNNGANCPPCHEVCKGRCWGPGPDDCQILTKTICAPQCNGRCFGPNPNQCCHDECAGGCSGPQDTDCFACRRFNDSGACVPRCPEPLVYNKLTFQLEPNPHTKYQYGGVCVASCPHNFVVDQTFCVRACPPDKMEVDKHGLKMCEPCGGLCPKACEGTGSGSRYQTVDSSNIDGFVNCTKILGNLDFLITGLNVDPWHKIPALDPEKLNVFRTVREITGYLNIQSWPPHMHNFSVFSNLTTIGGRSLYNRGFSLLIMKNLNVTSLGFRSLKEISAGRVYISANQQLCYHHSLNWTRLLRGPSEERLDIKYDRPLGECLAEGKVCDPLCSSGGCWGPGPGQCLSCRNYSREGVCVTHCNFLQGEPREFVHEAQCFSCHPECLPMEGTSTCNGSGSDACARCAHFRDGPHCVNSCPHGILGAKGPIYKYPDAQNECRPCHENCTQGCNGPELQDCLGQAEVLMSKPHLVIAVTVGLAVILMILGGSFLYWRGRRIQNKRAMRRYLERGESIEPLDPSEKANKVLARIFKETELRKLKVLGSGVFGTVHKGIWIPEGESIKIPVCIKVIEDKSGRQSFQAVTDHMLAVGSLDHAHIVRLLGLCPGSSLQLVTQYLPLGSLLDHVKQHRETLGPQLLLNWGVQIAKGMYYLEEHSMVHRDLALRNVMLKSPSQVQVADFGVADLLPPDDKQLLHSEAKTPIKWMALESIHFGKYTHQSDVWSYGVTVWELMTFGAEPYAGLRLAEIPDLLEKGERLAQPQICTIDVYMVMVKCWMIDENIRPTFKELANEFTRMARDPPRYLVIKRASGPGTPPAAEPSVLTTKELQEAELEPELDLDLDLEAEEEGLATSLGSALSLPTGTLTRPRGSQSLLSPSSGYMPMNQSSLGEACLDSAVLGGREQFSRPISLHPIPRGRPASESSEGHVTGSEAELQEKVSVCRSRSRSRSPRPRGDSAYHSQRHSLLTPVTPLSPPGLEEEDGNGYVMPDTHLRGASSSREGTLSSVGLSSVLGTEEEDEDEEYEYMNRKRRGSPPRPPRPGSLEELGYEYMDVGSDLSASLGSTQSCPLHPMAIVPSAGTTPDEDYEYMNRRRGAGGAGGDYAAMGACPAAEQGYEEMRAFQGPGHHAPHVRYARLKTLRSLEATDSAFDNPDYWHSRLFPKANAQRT
T2 sequence (P06494 23-1257 partner): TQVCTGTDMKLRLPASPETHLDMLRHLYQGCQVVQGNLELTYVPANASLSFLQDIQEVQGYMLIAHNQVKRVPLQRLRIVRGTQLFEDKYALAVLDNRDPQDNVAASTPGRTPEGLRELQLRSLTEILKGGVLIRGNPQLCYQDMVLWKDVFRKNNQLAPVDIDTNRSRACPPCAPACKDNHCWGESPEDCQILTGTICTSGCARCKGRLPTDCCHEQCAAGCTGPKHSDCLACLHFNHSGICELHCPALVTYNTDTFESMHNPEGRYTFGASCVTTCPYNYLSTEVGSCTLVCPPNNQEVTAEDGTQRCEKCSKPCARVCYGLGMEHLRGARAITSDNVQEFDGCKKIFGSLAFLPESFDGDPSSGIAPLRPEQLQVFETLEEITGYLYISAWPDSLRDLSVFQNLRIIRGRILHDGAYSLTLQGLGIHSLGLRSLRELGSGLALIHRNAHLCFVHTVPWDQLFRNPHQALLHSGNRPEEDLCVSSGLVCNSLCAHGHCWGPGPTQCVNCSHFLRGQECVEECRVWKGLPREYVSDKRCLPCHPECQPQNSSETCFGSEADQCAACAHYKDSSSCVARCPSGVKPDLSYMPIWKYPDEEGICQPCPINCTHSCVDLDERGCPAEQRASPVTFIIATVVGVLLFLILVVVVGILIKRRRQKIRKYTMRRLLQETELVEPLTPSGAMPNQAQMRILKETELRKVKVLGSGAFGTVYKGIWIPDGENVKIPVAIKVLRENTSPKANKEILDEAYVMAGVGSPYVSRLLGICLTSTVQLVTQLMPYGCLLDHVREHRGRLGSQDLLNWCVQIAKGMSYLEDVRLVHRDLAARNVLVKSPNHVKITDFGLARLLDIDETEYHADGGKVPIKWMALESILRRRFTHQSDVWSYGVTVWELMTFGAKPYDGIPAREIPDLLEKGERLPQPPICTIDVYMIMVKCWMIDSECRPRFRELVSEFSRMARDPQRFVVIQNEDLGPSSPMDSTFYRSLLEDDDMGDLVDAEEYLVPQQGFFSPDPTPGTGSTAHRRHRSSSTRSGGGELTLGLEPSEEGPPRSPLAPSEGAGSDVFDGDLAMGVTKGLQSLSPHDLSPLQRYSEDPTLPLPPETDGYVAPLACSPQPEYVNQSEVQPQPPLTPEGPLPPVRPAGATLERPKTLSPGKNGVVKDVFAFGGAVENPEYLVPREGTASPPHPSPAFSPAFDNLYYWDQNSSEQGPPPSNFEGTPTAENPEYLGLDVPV
T1 sequence (Q62956 26-1308): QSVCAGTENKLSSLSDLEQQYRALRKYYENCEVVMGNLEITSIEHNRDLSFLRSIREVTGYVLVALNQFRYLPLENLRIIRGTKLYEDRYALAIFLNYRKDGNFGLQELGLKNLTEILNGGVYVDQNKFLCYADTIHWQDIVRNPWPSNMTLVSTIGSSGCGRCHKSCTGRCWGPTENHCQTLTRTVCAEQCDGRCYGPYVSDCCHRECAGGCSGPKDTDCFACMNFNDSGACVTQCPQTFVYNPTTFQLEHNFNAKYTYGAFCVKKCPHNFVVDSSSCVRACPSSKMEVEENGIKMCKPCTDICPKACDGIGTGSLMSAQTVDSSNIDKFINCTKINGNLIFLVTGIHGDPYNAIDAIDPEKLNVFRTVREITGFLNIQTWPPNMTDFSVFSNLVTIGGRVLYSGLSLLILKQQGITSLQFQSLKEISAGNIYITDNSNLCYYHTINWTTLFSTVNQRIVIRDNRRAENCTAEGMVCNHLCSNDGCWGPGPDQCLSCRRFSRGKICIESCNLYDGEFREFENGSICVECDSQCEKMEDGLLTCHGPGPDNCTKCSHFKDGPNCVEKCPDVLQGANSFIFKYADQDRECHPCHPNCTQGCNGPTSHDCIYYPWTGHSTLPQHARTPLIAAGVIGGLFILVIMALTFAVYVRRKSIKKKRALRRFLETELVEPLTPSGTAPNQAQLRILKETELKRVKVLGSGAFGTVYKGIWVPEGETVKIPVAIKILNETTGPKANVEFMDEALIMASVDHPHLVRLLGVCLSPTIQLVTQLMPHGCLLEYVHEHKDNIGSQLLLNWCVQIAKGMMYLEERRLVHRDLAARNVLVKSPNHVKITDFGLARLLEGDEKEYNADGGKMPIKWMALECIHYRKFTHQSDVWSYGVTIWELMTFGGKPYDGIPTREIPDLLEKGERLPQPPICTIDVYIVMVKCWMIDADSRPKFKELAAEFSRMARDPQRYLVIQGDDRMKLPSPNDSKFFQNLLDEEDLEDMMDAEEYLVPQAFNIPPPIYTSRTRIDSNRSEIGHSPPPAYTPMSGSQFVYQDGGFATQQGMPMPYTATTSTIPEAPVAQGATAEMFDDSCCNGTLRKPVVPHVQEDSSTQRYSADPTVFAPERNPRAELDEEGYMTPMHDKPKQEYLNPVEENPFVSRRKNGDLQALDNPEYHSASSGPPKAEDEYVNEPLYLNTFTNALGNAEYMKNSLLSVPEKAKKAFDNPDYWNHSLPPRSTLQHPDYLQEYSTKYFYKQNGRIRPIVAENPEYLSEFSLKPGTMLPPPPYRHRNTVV
T1 sequence (P06494 23-1257 partner): as the sequence (P06494 23-1257 partner) above

Molecule	EC50 (ErbB4) [nM]	Selectivity SC/CM (ErbB4)	CM % Agonism AVG (ErbB4) [%]	EC50 (ErbB3) [nM]
huNRG1(S177-F229)(NRGE1C) 6xHis: 6xHis-tagged NRG1 variant SEQ ID NO:117 (protein, 6xHis tag; huNRG1(S177-F229)(NRGE1C) 6xHis) SHLVKCGEKHKSFCVNGGECFMIEGPSNPSRYLCKCPNEFTGDRCQEDFMASFGGGGEGGGGAGGGGHHHHHH	1.44	>10000	106	10000
huNRG1(S177-F229)(NRGE1D) (E47T_D48S_F49L_M50L) 6xHis: 6xHis-tagged NRG1 variant SEQ ID NO:129 (protein, 6xHis tag; huNRG1(S177-F229)(NRGE1D) (E47T_D48S_F49L_M50L) 6xHis) SHLVKCGESHKSFCVNGGECYMVEGSSIPSRYLCKCPNEFTGDRCQTSLLASFGGGGEGGGGAGGGGHHHHHH	0.33	>10000	99.83	10000
huNRG1(S177-F229)(NRGE1C) (E47A_D48P_F49H_M50I) 6xHis: 6xHis-tagged NRG1 variant SEQ ID NO:119 (protein, 6xHis tag; huNRG1(S177-F229)(NRGE1C) (E47A_D48P_F49H_M50I) 6xHis) SHLVKCGEKHKSFCVNGGECFMIEGPSNPSRYLCKCPNEFTGDRCQAPHIASFGGGGEGGGGAGGGGHHHHHH	1.1	>10000	96.47	10000
huNRG1(S177-F229)(NRGE1D) (E47V_D48T_F49R_M50L) 6xHis: 6xHis-tagged NRG1 variant SEQ ID NO:130 (protein, 6xHis tag; huNRG1(S177-F229)(NRGE1D) (E47V_D48T_F49R_M50L) 6xHis) SHLVKCGESHKSFCVNGGECYMVEGSSIPSRYLCKCPNEFTGDRCQVTRLASFGGGGEGGGGAGGGGHHHHHH	0.224	>10000	97.95	10000
huNRG1(S177-F229)(NRGE1C) (E47S_D48T_F49R_M50V) 6xHis: 6xHis-tagged NRG1 variant SEQ ID NO:123 (protein, 6xHis tag; huNRG1(S177-F229)(NRGE1C) (E47S_D48T_F49R_M50V) 6xHis) SHLVKCGEKHKSFCVNGGECFMIEGPSNPSRYLCKCPNEFTGDRCQSTRVASFGGGGEGGGGAGGGGHHHHHH	0.58	>10000	87.47	10000
huNRG1(S177-F229)(NRGE1C) (E47K_D48T_F49S_M50L) 6xHis: 6xHis-tagged NRG1 variant SEQ ID NO:120 (protein, 6xHis tag; huNRG1(S177-F229)(NRGE1C) (E47K_D48T_F49S_M50L) 6xHis) SHLVKCGEKHKSFCVNGGECFMIEGPSNPSRYLCKCPNEFTGDRCQKTSLASFGGGGEGGGGAGGGGHHHHHH	0.825	>10000	91.82	10000
huNRG1(S177-F229)(NRGE1D) (E47S_D48S_F49E_M50L) 6xHis: 6xHis-tagged NRG1 variant SEQ ID NO:128 (protein, 6xHis tag; huNRG1(S177-F229)(NRGE1D) (E47S_D48S_F49E_M50L) 6xHis) SHLVKCGESHKSFCVNGGECYMVEGSSIPSRYLCKCPNEFTGDRCQSSELASFGGGGEGGGGAGGGGHHHHHH	0.557	>10000	96.05	10000
huNRG1(S177-F229) 6xHis: 6xHis-tagged NRG1 fragment S177-F229 without variant mutations (protein, 6xHis tag; huNRG1(S177-F229) 6xHis, 6xHis-tagged NRG1 fragment S177-F229 without variant mutations) SHLVKCAEKEKTFCVNGGECFMVKDLSNPSRYLCKCPNEFTGDRCQNYVMASFGGGGEGGGGAGGGGHHHHHH	0.587	6.165	97.51	3.62
huNRG1(S177-S228)(NRGE1C)::3x(G4Q)::huFcSEFL2 (Pb): Fc fusion of NRG1 variant SEQ ID NO:116 (protein, huNRG1(S177-S228)(NRGE1C)::3x(G4Q)::huFcSEFL2 (Pb)) STYRCVSVLTVLHQDWLNGKEYKCKVSNKALPAPIEKTISKAKGQPREPQVYTLPPSREEMTKNQVSLTCLVKGFYPSDIAVEWESNGQPENNYKTTPPVLDSDGSFFLYSKLTVDKSRWQQGNVFSCSVMHEALHNHYTQKSLSLSPGK	14.8	53	–	783

Results, then the molecule that gave them:

EC50 (ErbB4) [nM]	Selectivity SC/CM (ErbB4)	CM % Agonism AVG (ErbB4) [%]	EC50 (ErbB3) [nM]	Molecule
0.695	>10000	85.89	10000	huNRG1(S177-F229)(NRGE1C) (E47S_D48A_F49L_M50T) 6xHis: 6xHis-tagged NRG1 variant SEQ ID NO:122; ErbB4 selective agonist without Fc of Example 3 (protein, 6xHis tag; huNRG1(S177-F229)(NRGE1C) (E47S_D48A_F49L_M50T) 6xHis) SHLVKCGEKHKSFCVNGGECFMIEGPSNPSRYLCKCPNEFTGDRCQSALTASFGGGGEGGGGAGGGGHHHHHH
0.39	>10000	90.65	10000	huNRG1(S177-F229)(NRGE1D) 6xHis: 6xHis-tagged NRG1 variant SEQ ID NO:126 (protein, 6xHis tag; huNRG1(S177-F229)(NRGE1D) 6xHis) SHLVKCGESHKSFCVNGGECYMVEGSSIPSRYLCKCPNEFTGDRCQEDFMASFGGGGEGGGGAGGGGHHHHHH
0.712	>10000	105.7	10000	huNRG1(S177-F229)(NRGE1C) (D48T_F49Q_M50I) 6xHis: 6xHis-tagged NRG1 variant SEQ ID NO:118 (protein, 6xHis tag; huNRG1(S177-F229)(NRGE1C) (D48T_F49Q_M50I) 6xHis) SHLVKCGEKHKSFCVNGGECFMIEGPSNPSRYLCKCPNEFTGDRCQETQIASFGGGGEGGGGAGGGGHHHHHH
0.311	55.4019	91.65	17.2	huNRG1(S177-F229)(NRGE1D) (E47K_D48L_F49D_M50I) 6xHis: 6xHis-tagged NRG1 variant SEQ ID NO:127 (protein, 6xHis tag; huNRG1(S177-F229)(NRGE1D) (E47K_D48L_F49D_M50I) 6xHis) SHLVKCGESHKSFCVNGGECYMVEGSSIPSRYLCKCPNEFTGDRCQKLDIASFGGGGEGGGGAGGGGHHHHHH
2.6	0.03	–	0.07	huNRG1(S177-S228)(wt)::3x(G4Q)::huFcSEFL2 (Pb): Fc fusion of wild-type NRG1 fragment S177-S228 (protein, huNRG1(S177-S228)(wt)::3x(G4Q)::huFcSEFL2 (Pb)) STYRCVSVLTVLHQDWLNGKEYKCKVSNKALPAPIEKTISKAKGQPREPQVYTLPPSREEMTKNQVSLTCLVKGFYPSDIAVEWESNGQPENNYKTTPPVLDSDGSFFLYSKLTVDKSRWQQGNVFSCSVMHEALHNHYTQKSLSLSPGK
